Assay results reported in patent US11130793B2, “GLP-1/GLP-2 dual agonists” (Zealand Pharma A/S, priority 2016, dated 2021).
Values belong to the molecule of their own block, whether it stands above or below them. Square brackets hold non-standard residues; d marks the D form. Peptide text beside a SMILES is read from it. Aib = CC(C)(N)C(=O)O

Assays:
human GLP-1 receptor = target: T1, human GLP-1 receptor (Homo sapiens, UniProt P43220); test: GLP-1 receptor potency assay (cAMP AlphaScreen, HEK293 cells stably expressing GLP-1R); format: cell-based; conditions: cAMP response, HEK293 cells expressing human GLP-1R; read-out: EC50 GLP-1
T1 construct: expressed in transfected cells
T1 sequence (P43220 24-463): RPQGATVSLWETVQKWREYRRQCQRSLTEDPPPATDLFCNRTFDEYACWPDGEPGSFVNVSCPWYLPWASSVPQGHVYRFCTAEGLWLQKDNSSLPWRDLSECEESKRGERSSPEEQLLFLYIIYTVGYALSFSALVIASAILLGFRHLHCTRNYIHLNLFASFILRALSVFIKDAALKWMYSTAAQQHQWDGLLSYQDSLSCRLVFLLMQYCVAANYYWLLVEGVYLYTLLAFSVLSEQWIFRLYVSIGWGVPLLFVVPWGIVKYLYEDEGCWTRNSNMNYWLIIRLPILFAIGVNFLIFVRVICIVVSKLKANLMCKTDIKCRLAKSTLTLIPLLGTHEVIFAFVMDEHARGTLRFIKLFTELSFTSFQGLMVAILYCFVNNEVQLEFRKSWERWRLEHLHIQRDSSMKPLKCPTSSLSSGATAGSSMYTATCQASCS
Source text: (§1) One useful in vitro assay for measuring GLP-1 and GLP-2 receptor activity is quantitation of cAMP, i.e. 3′-5′-cyclic adenosine monophosphate, which is a second messenger essential in many biological processes, and one of the most ubiquitous mechanisms for regulating cellular functions. […] Test compounds eliciting an increase in the intracellular level of cAMP can be tested in these assays, and the response normalized relative to a positive and negative control (vehicle) to calculate the EC50 and maximal response from the concentration response curve using the 4-parameter logistic (4PL) nonlinear model for curve fitting.
The cDNA encoding the human glucagon-like peptide 1 receptor (GLP-1R) (primary accession number P43220) was cloned from the cDNA BC112126 (MGC:138331/IMAGE:8327594). The DNA encoding the GLP-1-R was amplified by PCR using primers encoding terminal restriction sites for subcloning. The 5′-end primers additionally encoded a near Kozak consensus sequence to ensure efficient translation. […] The PCR products encoding the GLP-1-R were subcloned into a mammalian expression vector containing a neomycin (G418) resistance marker. The mammalian expression vectors encoding the GLP-1-R were transfected into HEK293 cells by a standard calcium phosphate transfection method. 48 hours post-transfection, cells were seeded for limited dilution cloning and selected with 1 mg/ml G418 in the culture medium. Following 3 weeks in G418 selection clones were picked and tested in a functional GLP-1 receptor potency assay as described below.
(§2) The cAMP AlphaScreen assay from Perkin Elmer was used to quantitate the cAMP response to activation of the GLP1 and GLP2 receptor, respectively. […] Data from test compounds eliciting an increase in the intracellular level of cAMP were normalized relative to the positive and negative control (vehicle) to calculate the EC50 and maximal response from the concentration response curve.

human GLP-2 receptor = target: T2, human GLP-2 receptor (Homo sapiens, UniProt O95838, D470N); test: GLP-2 receptor potency assay (cAMP AlphaScreen, HEK293 cells stably expressing GLP-2R); format: cell-based; conditions: cAMP response, HEK293 cells expressing human GLP-2R
T2 sequence (O95838 1-553 D470N): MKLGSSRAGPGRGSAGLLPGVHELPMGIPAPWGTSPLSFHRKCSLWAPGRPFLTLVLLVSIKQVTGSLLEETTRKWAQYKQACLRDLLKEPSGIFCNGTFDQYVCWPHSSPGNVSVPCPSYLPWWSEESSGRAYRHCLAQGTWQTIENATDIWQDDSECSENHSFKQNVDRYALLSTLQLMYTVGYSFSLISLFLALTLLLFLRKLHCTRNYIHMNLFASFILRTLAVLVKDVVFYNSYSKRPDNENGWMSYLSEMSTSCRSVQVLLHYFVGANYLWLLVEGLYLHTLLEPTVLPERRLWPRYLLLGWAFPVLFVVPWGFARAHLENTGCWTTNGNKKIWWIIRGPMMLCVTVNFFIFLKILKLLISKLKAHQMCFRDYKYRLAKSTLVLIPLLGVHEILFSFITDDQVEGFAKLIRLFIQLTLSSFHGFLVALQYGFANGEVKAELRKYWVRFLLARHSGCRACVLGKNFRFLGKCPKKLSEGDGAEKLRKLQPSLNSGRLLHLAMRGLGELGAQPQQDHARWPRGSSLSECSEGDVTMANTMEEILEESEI
Source text: as §1
The hGLP2-R was purchased from MRC-geneservice, Babraham, Cambridge as an Image clone: 5363415 (11924-I17). For subcloning into a mammalian expression vector, primers for subcloning were obtained from DNA-Technology, Risskov, Denmark. The 5′ and 3′ primers used for the PCR reaction include terminal restriction sites for cloning and the context of the 5′ primer is modified to a Kozak consensus without changing the sequence of the product encoded by the ORF. A standard PCR reaction was run using Image clone 5363415 (11924-117) as a template with the above mentioned primers and Polymerase Herculase II Fusion in a total vol. of 50 μl. The generated PCR product was purified using GFX PCR and Gel band purification kit, digested with restriction enzymes and cloned into the mammalian expression vector using Rapid DNA Ligation Kit. Ligation reaction was transformed to XL10 Gold Ultracompetent cells and colonies were picked for DNA production using Endofree Plasmid maxi kit. Subsequent sequence analysis was conducted by MWG Eurofins, Germany.
HEK293 cells were transfected using the Lipofectamine PLUS transfection method. The day before transfection, HEK293 cells were seeded in two T75 flasks at a density of 2×10^6 cells/T75 flask in cell culturing medium without antibiotics. On the day of transfection, cells were washed with 1×DPBS and medium was replaced with Optimem to a volume of 5 mL/T75 flask before addition of Lipofectamine-plasmid complexes were added gently and drop wise to the cells in T75 flasks and replaced with growth medium after 3 hours and again to growth medium supplemented with 500 μg/mL G418 after 24 hours. Following 4 weeks in G418 selection, clones were picked and tested in a functional GLP-2 receptor potency assay as described below.
as §2

[1] = target: human glucagon-like peptide 1 receptor (GLP-1R) (human, UniProt P43220); test: cell-based or functional assay
[2] = target: T3, human GLP-2 receptor (hGLP2-R) (human, UniProt O95838); test: cell-based or functional assay
T3 sequence: T2 sequence (O95838 1-553 D470N)

Molecule: CC[C@H](C)[C@H](NC(=O)[C@H](Cc1ccccc1)NC(=O)[C@H](CC(=O)O)NC(=O)[C@H](CCCNC(=N)N)NC(=O)[C@H](C)NC(=O)[C@H](C)NC(=O)[C@H](CCC(N)=O)NC(=O)[C@H](CCC(=O)O)NC(=O)[C@H](CC(=O)O)NC(=O)[C@H](CC(C)C)NC(=O)[C@@H](NC(=O)[C@@H](NC(=O)[C@H](C)NC(=O)[C@H](CC(C)C)NC(=O)[C@H](CCC(=O)O)NC(=O)[C@H](CC(=O)O)NC(=O)[C@@H](NC(=O)[C@H](Cc1ccccc1)NC(=O)[C@@H](NC(=O)CNC(=O)[C@H](CCC(=O)O)NC(=O)C(C)(C)NC(=O)[C@@H](N)Cc1c[nH]cn1)[C@@H](C)O)[C@@H](C)O)[C@@H](C)O)[C@@H](C)CC)C(=O)N[C@@H](C)C(=O)N[C@@H](Cc1c[nH]c2ccccc12)C(=O)N[C@@H](CC(C)C)C(=O)N[C@@H](CCC(N)=O)C(=O)N[C@@H](C)C(=O)N[C@@H](CCC(N)=O)C(=O)N[C@@H](CCCCN)C(=O)N[C@H](C(=O)N[C@H](C(=O)N[C@@H](CC(=O)O)C(=O)O)[C@@H](C)O)[C@@H](C)CC [Compound 29] (H-H[Aib]EGTFTDELATILDEQAARDFIAWLQAQKITD-OH)
- EC50 (human GLP-1 receptor): 0.044 nM
- EC50 (human GLP-2 receptor): 0.11 nM

B1: Compound 41 (peptide)
peptide: H-H[Aib]EGSFSSELATILDEQAARDFIAWLIQHKITD-OH
SMILES: CC[C@H](C)[C@H](NC(=O)[C@H](Cc1ccccc1)NC(=O)[C@H](CC(=O)O)NC(=O)[C@H](CCCNC(=N)N)NC(=O)[C@H](C)NC(=O)[C@H](C)NC(=O)[C@H](CCC(N)=O)NC(=O)[C@H](CCC(=O)O)NC(=O)[C@H](CC(=O)O)NC(=O)[C@H](CC(C)C)NC(=O)[C@@H](NC(=O)[C@@H](NC(=O)[C@H](C)NC(=O)[C@H](CC(C)C)NC(=O)[C@H](CCC(=O)O)NC(=O)[C@H](CO)NC(=O)[C@H](CO)NC(=O)[C@H](Cc1ccccc1)NC(=O)[C@H](CO)NC(=O)CNC(=O)[C@H](CCC(=O)O)NC(=O)C(C)(C)NC(=O)[C@@H](N)Cc1c[nH]cn1)[C@@H](C)O)[C@@H](C)CC)C(=O)N[C@@H](C)C(=O)N[C@@H](Cc1c[nH]c2ccccc12)C(=O)N[C@@H](CC(C)C)C(=O)N[C@H](C(=O)N[C@@H](CCC(N)=O)C(=O)N[C@@H](Cc1c[nH]cn1)C(=O)N[C@@H](CCCCN)C(=O)N[C@H](C(=O)N[C@H](C(=O)N[C@@H](CC(=O)O)C(=O)O)[C@@H](C)O)[C@@H](C)CC)[C@@H](C)CC
- EC50 GLP-1 (nM); cAMP AlphaScreen [1]: 0.078 nM
- EC50 GLP-2 (nM); cAMP AlphaScreen [2]: 0.026 nM

Molecule: H-HGEGTFTSELATILDEQAARDFIAWLIAHKITD-OH [Compound 38]
- EC50 GLP-1 (nM); cAMP AlphaScreen [1]: 0.008 nM
- EC50 GLP-2 (nM); cAMP AlphaScreen [2]: 0.043 nM

The next lines start with the values.

- EC50 (human GLP-1 receptor): 39 nM
Molecule: CC[C@H](C)[C@H](NC(=O)[C@H](Cc1ccccc1)NC(=O)[C@H](CC(=O)O)NC(=O)[C@H](CCCNC(=N)N)NC(=O)[C@H](C)NC(=O)[C@H](C)NC(=O)[C@H](CC(C)C)NC(=O)[C@H](CC(N)=O)NC(=O)[C@H](CC(=O)O)NC(=O)[C@H](CC(C)C)NC(=O)[C@@H](NC(=O)[C@@H](NC(=O)[C@H](CC(N)=O)NC(=O)[C@H](CCSC)NC(=O)[C@H](CCC(=O)O)NC(=O)[C@H](CC(=O)O)NC(=O)[C@H](CO)NC(=O)[C@H](Cc1ccccc1)NC(=O)[C@H](CO)NC(=O)CNC(=O)[C@H](CC(=O)O)NC(=O)CNC(=O)[C@@H](N)Cc1c[nH]cn1)[C@@H](C)O)[C@@H](C)CC)C(=O)N[C@@H](CC(N)=O)C(=O)N[C@@H](Cc1c[nH]c2ccccc12)C(=O)N[C@@H](CC(C)C)C(=O)N[C@H](C(=O)N[C@@H](CCC(N)=O)C(=O)N[C@H](C(=O)N[C@@H](CCCCN)C(=O)N[C@H](C(=O)N[C@H](C(=O)N[C@@H](CC(=O)O)C(=O)O)[C@@H](C)O)[C@@H](C)CC)[C@@H](C)O)[C@@H](C)CC [Teduglutide, [Gly2]-hGLP-2 (1-33), reference compound]

- EC50 GLP-1 (nM); cAMP AlphaScreen [1]: 0.03 nM
- EC50 GLP-2 (nM); cAMP AlphaScreen [2]: 0.96 nM
B2: Compound 39 (peptide)
peptide: H-H[Aib]EGTFSSELSTILEEQASREFIAWLIAHKITE-OH
SMILES: CC[C@H](C)[C@H](NC(=O)[C@H](CC(C)C)NC(=O)[C@H](Cc1c[nH]c2ccccc12)NC(=O)[C@H](C)NC(=O)[C@@H](NC(=O)[C@H](Cc1ccccc1)NC(=O)[C@H](CCC(=O)O)NC(=O)[C@H](CCCNC(=N)N)NC(=O)[C@H](CO)NC(=O)[C@H](C)NC(=O)[C@H](CCC(N)=O)NC(=O)[C@H](CCC(=O)O)NC(=O)[C@H](CCC(=O)O)NC(=O)[C@H](CC(C)C)NC(=O)[C@@H](NC(=O)[C@@H](NC(=O)[C@H](CO)NC(=O)[C@H](CC(C)C)NC(=O)[C@H](CCC(=O)O)NC(=O)[C@H](CO)NC(=O)[C@H](CO)NC(=O)[C@H](Cc1ccccc1)NC(=O)[C@@H](NC(=O)CNC(=O)[C@H](CCC(=O)O)NC(=O)C(C)(C)NC(=O)[C@@H](N)Cc1c[nH]cn1)[C@@H](C)O)[C@@H](C)O)[C@@H](C)CC)[C@@H](C)CC)C(=O)N[C@@H](C)C(=O)N[C@@H](Cc1c[nH]cn1)C(=O)N[C@@H](CCCCN)C(=O)N[C@H](C(=O)N[C@H](C(=O)N[C@@H](CCC(=O)O)C(=O)O)[C@@H](C)O)[C@@H](C)CC

- EC50 GLP-1 (nM); cAMP AlphaScreen [1]: 0.007 nM
- EC50 GLP-2 (nM); cAMP AlphaScreen [2]: 0.16 nM
B3: Compound 37 (peptide)
peptide: H-H[Aib]EGTFTSELATILDEQAARDFINWLKEQKITD-OH
SMILES: CC[C@H](C)[C@H](NC(=O)[C@H](Cc1ccccc1)NC(=O)[C@H](CC(=O)O)NC(=O)[C@H](CCCNC(=N)N)NC(=O)[C@H](C)NC(=O)[C@H](C)NC(=O)[C@H](CCC(N)=O)NC(=O)[C@H](CCC(=O)O)NC(=O)[C@H](CC(=O)O)NC(=O)[C@H](CC(C)C)NC(=O)[C@@H](NC(=O)[C@@H](NC(=O)[C@H](C)NC(=O)[C@H](CC(C)C)NC(=O)[C@H](CCC(=O)O)NC(=O)[C@H](CO)NC(=O)[C@@H](NC(=O)[C@H](Cc1ccccc1)NC(=O)[C@@H](NC(=O)CNC(=O)[C@H](CCC(=O)O)NC(=O)C(C)(C)NC(=O)[C@@H](N)Cc1c[nH]cn1)[C@@H](C)O)[C@@H](C)O)[C@@H](C)O)[C@@H](C)CC)C(=O)N[C@@H](CC(N)=O)C(=O)N[C@@H](Cc1c[nH]c2ccccc12)C(=O)N[C@@H](CC(C)C)C(=O)N[C@@H](CCCCN)C(=O)N[C@@H](CCC(=O)O)C(=O)N[C@@H](CCC(N)=O)C(=O)N[C@@H](CCCCN)C(=O)N[C@H](C(=O)N[C@H](C(=O)N[C@@H](CC(=O)O)C(=O)O)[C@@H](C)O)[C@@H](C)CC

- EC50 GLP-1 (nM); cAMP AlphaScreen [1]: 1.4 nM
- EC50 GLP-2 (nM); cAMP AlphaScreen [2]: 0.05 nM
Molecule: H-HGEGSFSSELATILDEQAARDFIAWLIQHKITD-NH2 [Compound 40]
